The target of test [1] is S. pombe Arp2/3 complex (S. pombe) (UniProt Q9UUJ1).
The target is the same in test [2]. This is another data set of the same source.

UniProt Q9UUJ1, sequence (Q9UUJ1 whole entry, looked up, one chain of several): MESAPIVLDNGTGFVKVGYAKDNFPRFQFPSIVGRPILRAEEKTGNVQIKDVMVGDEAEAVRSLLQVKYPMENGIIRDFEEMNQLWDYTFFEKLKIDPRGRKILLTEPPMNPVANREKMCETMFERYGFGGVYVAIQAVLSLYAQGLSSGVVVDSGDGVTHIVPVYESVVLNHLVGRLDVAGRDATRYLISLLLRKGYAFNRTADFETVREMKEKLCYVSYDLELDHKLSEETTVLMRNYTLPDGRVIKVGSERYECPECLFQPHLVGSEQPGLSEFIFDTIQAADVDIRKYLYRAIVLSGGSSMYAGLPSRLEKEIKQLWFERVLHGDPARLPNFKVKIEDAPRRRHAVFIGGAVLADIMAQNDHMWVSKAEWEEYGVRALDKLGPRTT

For the substance “Dip1(R301E) (from UniProt O74771 1-374) (natural protein)”, the activation of Arp2/3 complex, pyrene actin polymerization assay (3 μM 15% pyrene-labeled actin, 50 nM SpArp2/3 complex, 5 μM Dip1) (% reduction compared to WT Dip1) in test [1] was over 60. In turn, “Schizosaccharomyces pombe WDS protein Dip1, WT (from UniProt O74771 1-374) (natural protein)” had a maximum polymerization rate, pyrene actin polymerization assay (3 μM 15% pyrene-labeled actin, 50 nM SpArp2/3 complex, 5 μM Dip1); 2.8 nM/s for reactions without Dip1 in test [2] of 20 nM/s. In test [2], “Dip1(N292K) (from UniProt O74771 1-374) (natural protein)” showed a maximum polymerization rate, pyrene actin polymerization assay (3 μM 15% pyrene-labeled actin, 50 nM SpArp2/3 complex, 5 μM Dip1); 2.8 nM/s for reactions without Dip1 of 8 nM/s.

The values above are taken from PMC9168731.
